Test results from the supplement of paper PMC10598134.
± gives the standard deviation.

Assay: collision cross section of modified peptide (TIMS, N2, iRT-aligned); higher = larger / more extended gas-phase ion
Summary of the method: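 Collision cross section was derived from the Mason-Schamp equation. Each value averages 1–3 technical replicates of the most abundant feature per charge state, measured on a timsTOF Pro/HT in dda-PASEF mode (nitrogen, ~2.4 mbar) after a 120-min nanoflow C18 gradient at 60 °C. Synthetic peptide pools (~100 fmol/µL in 2% acetonitrile/0.1% formic acid, iRT standard spiked 1:40) were identified with MaxQuant, and 1/K0 was calibrated with three reference ions and aligned run-wise to the median iRT peptide deviation.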

[1] = charge state: 2, modification: Acetyl (K)
[2] = charge state: 2, modification: Phospho (Y)
[3] = charge state: 3, modification: Methyl (K)
[4] = charge state: 2, modification: Methyl (R)
[5] = charge state: 3, modification: Methyl (R)
[6] = charge state: 2, modification: GlyGly (K)
[7] = charge state: 3, modification: GlyGly (K)
[8] = charge state: 2, modification: Malonyl
[9] = charge state: 3, modification: Malonyl
[10] = charge state: 2, modification: Formyl
[11] = charge state: 2, modification: Citrullination (R)
[12] = charge state: 2, modification: Succinyl
[13] = charge state: 3, modification: Succinyl
[14] = charge state: 2, modification: Nitro (Y)
[15] = charge state: 2, modification: Hydroxyproline
[16] = charge state: 2, modification: Biotin
[17] = charge state: 3, modification: Biotin
[18] = charge state: 2, modification: Butyryl
[19] = charge state: 3, modification: Butyryl
[20] = charge state: 2, modification: HexNAc (ST)
[21] = charge state: 2, modification: hydroxyisobutyryl
[22] = charge state: 3, modification: hydroxyisobutyryl
[23] = charge state: 2, modification: Trimethyl (K)
[24] = charge state: 3, modification: Trimethyl (K)
[25] = charge state: 3, modification: Nitro (Y)
[26] = charge state: 2, modification: Methyl (K)
[27] = charge state: 2, modification: Glutarylation

Sequence: TQDQISNIKYHEEFEK [_TQDQISNIK(Acetyl (K))YHEEFEK_]
- collision cross section [1]: 481.39 Å²
- collision cross section (charge state: 3, modification: Acetyl (K)): 555.65 ± 0.58 Å²

Sequence: SYVDTGGVSR [_SY(Phospho (Y))VDTGGVSR_]
- collision cross section [2]: 347.56 ± 0.066 Å²

Sequence: DSINFLDHINGKK [_DSINFLDHINGK(Methyl (K))K_]
- collision cross section [3]: 461.65 ± 2.7 Å²

Sequence: GGSGGRGVSVSSAR [_GGSGGR(Methyl (R))GVSVSSAR_]
- collision cross section [4]: 384.84 ± 7.6 Å²
- collision cross section [5]: 464.84 ± 13 Å²

Sequence: IDLPAENSNSETIIITGKR [_IDLPAENSNSETIIITGK(GlyGly (K))R_]
- collision cross section [6]: 493.9 ± 1.8 Å²
- collision cross section [7]: 582.79 ± 0.38 Å²

Sequence: VLDSGAPIKIPVGPETLGR [_VLDSGAPIK(Malonyl)IPVGPETLGR_]
- collision cross section [8]: 468.64 ± 1.6 Å²
- collision cross section [9]: 512.64 ± 6.2 Å²

Sequence: IGSLDNITHVPGGGNK [_IGS(HexNAc (ST))LDNITHVPGGGNK_]
- collision cross section (charge state: 3, modification: HexNAc (ST)): 493.45 ± 0.96 Å²

Sequence: SGKFTQQDIDEAK [_SGK(Formyl)FTQQDIDEAK_]
- collision cross section [10]: 408.45 ± 0.19 Å²

Sequence: GRGTGEAEEEYVGPR [_GR(Citrullination (R))GTGEAEEEYVGPR_]
- collision cross section [11]: 411.48 ± 0.42 Å²
- collision cross section (charge state: 3, modification: Citrullination (R)): 487 ± 5.6 Å²

Sequence: FSAYIKNSNPALNDNLEK [_FSAYIK(Succinyl)NSNPALNDNLEK_]
- collision cross section [12]: 492.09 ± 3.4 Å²
- collision cross section [13]: 527.54 ± 2 Å²

Sequence: LDYSDFQIVK [_LDY(Phospho (Y))SDFQIVK_]
- collision cross section [2]: 374.72 ± 0.79 Å²

Sequence: GGGGGGGGGAPRGR [_GGGGGGGGGAPR(Methyl (R))GR_]
- collision cross section [4]: 346.08 ± 2.1 Å²
- collision cross section [5]: 427.42 ± 3.8 Å²

Sequence: VGIDTPDIDIHGPEGKLK [_VGIDTPDIDIHGPEGK(Malonyl)LK_]
- collision cross section [9]: 540.98 Å²

Sequence: VETTVTSLKTK [_VETTVTSLK(Propionyl)TK_]
- collision cross section (charge state: 2, modification: Propionyl): 382.91 ± 0.92 Å²

Sequence: CSVLAAANPVYGR [_CSVLAAANPVY(Nitro (Y))GR_]
- collision cross section [14]: 387.22 ± 0.17 Å²

Sequence: TVQGPPGEPGR [_TVQGPPGEP(Hydroxyproline)GR_]
- collision cross section [15]: 345.67 ± 0.89 Å²

Sequence: KVQFAPEK [_KVQFAP(Hydroxyproline)EK_]
- collision cross section [15]: 331.99 ± 1.4 Å²

Sequence: IISSIEQKEENK [_IISSIEQK(Biotin)EENK_]
- collision cross section [16]: 422.44 ± 3 Å²
- collision cross section [17]: 481.73 ± 1.6 Å²

Sequence: VNVEAPDVNLEGLGGKLK [_VNVEAPDVNLEGLGGK(Butyryl)LK_]
- collision cross section [18]: 466.95 ± 0.75 Å²
- collision cross section [19]: 548.3 ± 0.14 Å²

Sequence: LGNDFHTNKR [_LGNDFHTNK(Malonyl)R_]
- collision cross section [8]: 378.38 Å²

Sequence: AAQASDLEKIHLDEK [_AAQASDLEK(Succinyl)IHLDEK_]
- collision cross section [12]: 468.29 ± 1.1 Å²
- collision cross section [13]: 505.3 ± 1.6 Å²

Sequence: GSLEKGSPEDK [_GSLEK(Butyryl)GSPEDK_]
- collision cross section [18]: 371.66 ± 0.71 Å²

Sequence: TYVQDILR [_TY(Nitro (Y))VQDILR_]
- collision cross section [14]: 350.96 ± 0.47 Å²

Sequence: STLEEPNLQPLQR [_S(HexNAc (ST))TLEEPNLQPLQR_]
- collision cross section [20]: 436.25 ± 0.56 Å²

Sequence: ASDTSSETVFGKR [_ASDTSSETVFGK(Succinyl)R_]
- collision cross section [12]: 396.57 ± 0.25 Å²
- collision cross section [13]: 482.91 ± 3.3 Å²

Sequence: HVSPVTPPR [_HVSPVT(HexNAc (ST))PPR_]
- collision cross section [20]: 366.95 ± 0.8 Å²

Sequence: GETASKLQSEISR [_GETASK(Dimethyl (K))LQSEISR_]
- collision cross section (charge state: 2, modification: Dimethyl (K)): 398.3 ± 1.1 Å²
- collision cross section (charge state: 3, modification: Dimethyl (K)): 460.41 ± 2.6 Å²

Sequence: DHLSDKESK [_DHLSDK(hydroxyisobutyryl)ESK_]
- collision cross section [21]: 357.61 ± 1.9 Å²
- collision cross section [22]: 415.53 ± 4.4 Å²

Sequence: VLTANSNPSSPSAAKR [_VLTANSNPSSPSAAK(hydroxyisobutyryl)R_]
- collision cross section [21]: 434.9 ± 0.8 Å²
- collision cross section [22]: 533.81 ± 2 Å²

Sequence: PAVTAAPK [_PAVT(HexNAc (ST))AAPK_]
- collision cross section [20]: 333.39 ± 1 Å²

Sequence: ALASIDSKLNQAK [_ALASIDSK(Biotin)LNQAK_]
- collision cross section [16]: 417.14 ± 2.9 Å²
- collision cross section [17]: 481.19 Å²

Sequence: IVSGKDYNVTANSK [_IVSGK(Acetyl (K))DYNVTANSK_]
- collision cross section [1]: 408.96 ± 0.54 Å²

Sequence: AGQKLIDVNHYAK [_AGQK(Malonyl)LIDVNHYAK_]
- collision cross section [8]: 433.55 ± 0.56 Å²
- collision cross section [9]: 477.49 ± 1.8 Å²

Sequence: ASEALLKQLK [_ASEALLK(Trimethyl (K))QLK_]
- collision cross section [23]: 371.28 ± 0.027 Å²
- collision cross section [24]: 439.12 ± 1.8 Å²

Sequence: DLTTAGAVTQCYR [_DLTTAGAVTQCY(Nitro (Y))R_]
- collision cross section [14]: 399.32 ± 0.8 Å²
- collision cross section [25]: 462.24 Å²

Sequence: SSFAYKDQNENR [_SSFAYK(Succinyl)DQNENR_]
- collision cross section [12]: 400.73 ± 0.25 Å²
- collision cross section [13]: 453.96 Å²

Sequence: THLAPYSDELR [_THLAPY(Phospho (Y))SDELR_]
- collision cross section [2]: 373.88 ± 0.063 Å²
- collision cross section (charge state: 3, modification: Phospho (Y)): 446.73 ± 1.1 Å²

Sequence: SSGPGGQNVNKVNSK [_SSGPGGQNVNK(Malonyl)VNSK_]
- collision cross section [8]: 402.61 ± 1.8 Å²
- collision cross section [9]: 439.94 ± 2.2 Å²

Sequence: VGTASVLQPVKK [_VGTASVLQPVK(Butyryl)K_]
- collision cross section [18]: 385.91 ± 0.85 Å²

Sequence: LGILPVGRGK [_LGILPVGR(Citrullination (R))GK_]
- collision cross section [11]: 340.52 ± 0.26 Å²

Sequence: ALASIDSKLNQAK [_ALASIDSK(Methyl (K))LNQAK_]
- collision cross section [26]: 411.6 ± 0.9 Å²
- collision cross section [3]: 462.35 ± 4.6 Å²

Sequence: SDSGKPYYYNSQTK [_SDSGK(Trimethyl (K))PYYYNSQTK_]
- collision cross section [24]: 473.28 ± 2.4 Å²

Sequence: AYILNLVK [_AY(Nitro (Y))ILNLVK_]
- collision cross section [14]: 333.68 ± 0.72 Å²

Sequence: SEASSEFAKK [_SEASSEFAK(Gluratylation)K_]
- collision cross section [27]: 358.01 ± 0.65 Å²

Sequence: SPSDSGYSYETIGKTTK [_SPSDSGYSYETIGK(Propionyl)TTK_]
- collision cross section (charge state: 3, modification: Propionyl): 528.1 Å²

Sequence: VLDSGAPIKIPVGPETLGR [_VLDSGAPIK(Succinyl)IPVGPETLGR_]
- collision cross section [12]: 470.32 ± 0.95 Å²

Sequence: DTGEKLTVAENEAETK [_DTGEK(Formyl)LTVAENEAETK_]
- collision cross section [10]: 439.79 ± 0.78 Å²

Sequence: DESFLGKLGGTLAR [_DESFLGK(Butyryl)LGGTLAR_]
- collision cross section [18]: 417.73 ± 0.53 Å²
- collision cross section [19]: 494.35 ± 3.3 Å²

Sequence: SKHLQEQLNELK [_SK(Malonyl)HLQEQLNELK_]
- collision cross section [8]: 415.64 Å²
- collision cross section [9]: 480.76 ± 0.91 Å²

Sequence: SEASSEFAKK [_SEASSEFAK(Biotin)K_]
- collision cross section [16]: 374.33 Å²

Sequence: TPNLYIYSKK [_TPNLYIYSK(Formyl)K_]
- collision cross section [10]: 377.67 ± 0.9 Å²

Sequence: YHEDIFGLTLR [_Y(Nitro (Y))HEDIFGLTLR_]
- collision cross section [14]: 391.96 ± 0.8 Å²
- collision cross section [25]: 465.92 ± 0.23 Å²

Sequence: VLTANSNPSSPSAAKR [_VLTANSNPSSPSAAK(Butyryl)R_]
- collision cross section [18]: 432.84 ± 1.8 Å²
- collision cross section [19]: 531.28 ± 2.7 Å²

Sequence: FVDSKVGEFSGANK [_FVDSK(Formyl)VGEFSGANK_]
- collision cross section [10]: 406.35 Å²

Sequence: TLQKQSVVYGGK [_TLQK(Methyl (K))QSVVYGGK_]
- collision cross section [26]: 395.77 ± 1.4 Å²
- collision cross section [3]: 446.7 ± 4.9 Å²

Sequence: TTGFYSGFSEVAEKR [_TTGFYSGFSEVAEK(GlyGly (K))R_]
- collision cross section [6]: 463.26 ± 1.6 Å²
- collision cross section [7]: 525.41 ± 1.1 Å²

Sequence: SKHLQEQLNELK [_SK(Biotin)HLQEQLNELK_]
- collision cross section [17]: 520.89 Å²

Sequence: GFCFITYTDEEPVKK [_GFCFITYTDEEPVK(Butyryl)K_]
- collision cross section [18]: 458.8 ± 0.51 Å²

Sequence: ISALQGKLSK [_ISALQGK(Formyl)LSK_]
- collision cross section [10]: 348.45 ± 1 Å²

Sequence: STCTYVGAAK [_STCTY(Nitro (Y))VGAAK_]
- collision cross section [14]: 340.86 ± 0.72 Å²

Sequence: DKALPLEAEVAPVK [_DK(Trimethyl (K))ALPLEAEVAPVK_]
- collision cross section [23]: 415.71 ± 1.1 Å²
- collision cross section [24]: 491.82 ± 2.4 Å²

Sequence: KFGVLSDNFK [_K(Trimethyl (K))FGVLSDNFK_]
- collision cross section [23]: 372.9 ± 0.61 Å²
- collision cross section [24]: 457.56 Å²

Sequence: LLEEEDSKLK [_LLEEEDSK(Butyryl)LK_]
- collision cross section [18]: 385.99 ± 0.85 Å²

Sequence: LFVGGIKEDTEEHHLR [_LFVGGIK(Crotonyl)EDTEEHHLR_]
- collision cross section (charge state: 3, modification: Crotonyl): 544.97 ± 1.3 Å²

Sequence: TTGFYSGFSEVAEKR [_TTGFYSGFSEVAEK(Formyl)R_]
- collision cross section [10]: 430.24 ± 0.79 Å²

Sequence: IDLPAENSNSETIIITGKR [_IDLPAENSNSETIIITGK(Methyl (K))R_]
- collision cross section [3]: 568.48 ± 0.62 Å²

Sequence: HELQANCYEEVKDR [_HELQANCYEEVK(hydroxyisobutyryl)DR_]
- collision cross section [22]: 504.98 ± 2.9 Å²

Sequence: ILDLKTGTVK [_ILDLK(Gluratylation)TGTVK_]
- collision cross section [27]: 368.56 ± 0.72 Å²

Sequence: IISSIEQKEENK [_IISSIEQK(Methyl (K))EENK_]
- collision cross section [26]: 408.26 ± 2.5 Å²
- collision cross section [3]: 450.18 ± 5 Å²
